From paper PMC9485235, “Structural insights into cyanobacterial RuBisCO assembly coordinated by two chaperones Raf1 and RbcX” (Cell Discovery, 2022)

What was measured:
[1] = target: T1, Anabaena sp. PCC 7120 RbcL-Raf1 complex (RbcL8Raf1_(8)) (Anabaena sp. PCC 7120, UniProt P00879 1-476; Q8YLP6 1-361); assay: native gel or EMSA; RuBisCO assembly assays: 0.5 µM L8F8 or L8F8X16 mixed with Flag-RbcS (0-10-fold to RbcL), with or without pre-incubation with 8 µM RbcX or RbcX^E32A&R69A or RbcX2 at 0-1 fold to RbcL; 25 °C, 20 mM Tris-HCl pH 8.0, 300 mM NaCl, 5 mM MgCl2, 5% glycerol; ~0.5 h; 6% native-PAGE, bands analysed by SDS-PAGE; details: both partners purified
T1 construct: RbcL, Anabaena sp; as m1; plasmid pET19-His-RbcL–Raf1; Raf1, Anabaena sp; as m2; The preparation holds L8F8 and a fraction of L2F2 on native-PAGE; also called L8F8; L2F2 (smaller form in the same preparation); copies: 8 + 8

[2] = target: the molecule itself; assay: cryo-EM structure; RbcL–Raf1–RbcX ternary complex co-expressed in E. coli with GroEL-GroES, purified by Ni-NTA and gel filtration in 50 mM Tris-HCl pH 8.0, 20 mM NaCl, 5 mM MgCl2; ~2 mg/mL; D4 symmetry; 3.3 Å

T1 sequence (Q8YLP6 whole entry, one chain of several): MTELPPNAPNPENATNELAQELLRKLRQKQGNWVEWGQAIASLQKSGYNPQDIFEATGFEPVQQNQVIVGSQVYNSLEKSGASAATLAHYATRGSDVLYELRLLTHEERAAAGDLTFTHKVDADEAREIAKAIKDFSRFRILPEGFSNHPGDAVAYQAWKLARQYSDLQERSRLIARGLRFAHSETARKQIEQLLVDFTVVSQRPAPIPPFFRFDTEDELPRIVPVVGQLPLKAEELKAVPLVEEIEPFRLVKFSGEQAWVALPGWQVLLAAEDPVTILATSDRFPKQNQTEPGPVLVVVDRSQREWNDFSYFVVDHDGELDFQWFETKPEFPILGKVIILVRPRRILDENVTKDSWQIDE

Row | binding result [1] | Binder | stoichiometry N [2]
1 | binds | Recombinant Anabaena sp. PCC 7120 Flag-RbcS (RuBisCO small subunit) (natural protein, UniProt P06514 1-109, looked up, RbcS, RuBisCO small subunit, Anabaena sp; coding region amplified from genomic DNA; plasmid pET19-Flag-RbcS; A His-RbcS was also made (pET19-His-RbcS); the assembly-assay methods name Flag-RbcS; source: E. coli BL21 (DE3), purified (anti-FLAG M2 gel, Superdex 75); also in lysate (holoenzyme co-purification)) MQTLPKERRYETLSYLPPLTDVQIEKQVQYILSQGYIPAVEFNEVSEPTELYWTLWKLPLFGAKTSREVLAEVQSCRSQYPGHYIRVVGFDNIKQCQILSFIVHKPSRY | 
2 |  | RuBisCO large subunit RbcL from Anabaena sp. PCC 7120 (His-RbcL) (natural protein, UniProt P00879 1-476, looked up, RbcL, ribulose-1,5-bisphosphate carboxylase/oxygenase large subunit, Anabaena sp; coding region amplified from genomic DNA; plasmid pET19-His-RbcL; also called RbcL8 core; source: E. coli BL21 (DE3), co-expressed with GroEL-GroES and chaperones, purified (Ni-NTA, gel filtration); also in lysate (holoenzyme co-purification)) MSYAQTKTQTKSGYKAGVQDYRLTYYTPDYTPKDTDILAAFRVTPQPGVPFEEAAAAVAAESSTGTWTTVWTDLLTDLDRYKGRCYDIEPVPGEDNQFIAYIAYPLDLFEEGSITNVLTSIVGNVFGFKALRALRLEDIRFPVAYIKTFQGPPHGIQVERDKLNKYGRPLLGCTIKPKLGLSAKNYGRAVYECLRGGLDFTKDDENINSAPFQRWRDRFLFVADAITKAQAETGEIKGHYLNVTAPTCEEMLKRAEYAKELKQPIIMHDYLTAGFTANTTLARWCRDNGVLLHIHRAMHAVIDRQKNHGIHFRVLAKALRLSGGDHIHTGTVVGKLEGERGITMGFVDLLRENYVEQDKSRGIYFTQDWASLPGVMAVASGGIHVWHMPALVEIFGDDSVLQFGGGTLGHPWGNAPGATANRVALEACVQARNEGRNLAREGNDVIREAAKWSPELAVACELWKEIKFEFEAMDTV | 8
3 |  | RbcX from Anabaena sp. PCC 7120, co-expressed in the ternary complex (natural protein, RbcX, RuBisCO chaperone, Anabaena sp; coding region amplified from genomic DNA; plasmid pCDFduet-GroEL-GroES-RbcX-Raf1; No tag is named for this RbcX in the plasmid name; also called RbcX2 (dimer); source: E. coli BL21 (DE3), co-expressed with His-RbcL, Raf1 and GroEL-GroES, co-purified (Ni-NTA, gel filtration)) MNLKQIAKDTAKTLQSYLTYQALMTVLAQLGETNPPLALWLHTFSVGKVQDGEAYVKELFREQPDLALRIMTVREHIAEEVAEFLPEMVRSGIQQANMEQRRQHLERMTHLSLSNPSPESEQQTISDTDWDH | 2
